This experiment concerns the target purified native cellulosome of C. thermocellum ATCC 27405 (C. thermocellum ATCC 27405) (UniProt Q06851).

In the case of “wild-type (WT) BglA, β-glucosidase A from C. thermocellum, as cloned (enzyme)”, the hydrolysis of microcrystalline cellulose and pre-treated switchgrass (soluble reducing sugars) was 2.06 fold.

“BglA-CohII (chimaeric C. thermocellum β-glucosidase A fused to the type-II cohesin module of the Orf2p anchoring protein) (enzyme)”: the hydrolysis of microcrystalline cellulose and pre-treated switchgrass (soluble reducing sugars) was determined as 2.68 fold.
